# Measured values reported in US11278600B2, “Human alpha-galactosidase variants” (Codexis, Inc., priority 2014, dated 2022).
# Experiments:
# Format in all cases: biochemical
# [1] = HTP-analysis of supernatants pretreated with acid (MUGal hydrolysis); details: challenge at pH 4.2; activity of the variant/activity of Rd2BB (SEQ ID NO: 10); yeast culture supernatant
# How it was run: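 Yeast INVSc1 supernatant, GLA variants; acid challenge: McIlvaine pH 3.3-4.3, 37° C., 1-3 h. Assay: MUGal in McIlvaine pH 4.8 plus citrate pH 4.3, 37° C., 30-180 min, Na2CO3 stop, Ex 355/Em 448 nm.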
# [2] = HTP-analysis of supernatants pretreated with bovine serum (MUGal hydrolysis); details: activity of the variant/activity of Rd2BB (SEQ ID NO: 10), yeast culture supernatant
# Experimental: Yeast (INVSc1) cells transformed with vectors expressing GLA and GLA variants using the lithium acetate method were selected on SD-Ura agar plates. After 72 h incubation at 30° C. colonies were placed into the wells of Axygen® 1.1 ml 96-well deep well plates filled with 200 μl/well SD-Ura broth (2 g/L SD-Ura, 6.8 g/L yeast nitrogen base without amino acids [Sigma Aldrich]), 3.06 g/L sodium dihydrogen phosphate, 0.804 g/L disodium hydrogen phosphate, pH 6.0 supplemented with 6% glucose. The cells were allowed to grow for 20-24 hours in a Kuhner shaker (250 rpm, 30° C., and 85% relative humidity). Overnight culture samples (20 μL) were transferred into Corning Costar® 96-well deep plates filled with 380 µL of SD-ura broth supplemented with 2% glucose. The plates were incubated for 66-84 h in a Kuhner shaker (250 rpm, 30° C., and 85% relative humidity). The cells were then pelleted (4000 rpm×20 min), and the supernatants isolated and stored at 4° C. prior to analysis.
# GLA variants were challenged with bovine serum to simulate the conditions the variants encounter following infusion into a patient. First, 20 μL of yeast culture supernatant and 80 μL, of bovine serum were added to the wells of a 96-well round bottom plate. The plates were sealed and incubated at 37° C. for 1 h. For the assay, 50 μL of serum-challenged sample was mixed with 25 μL, of 1 M citrate buffer pH 4.3 and 25 μL, of 4 mM MUGal in McIlvaine buffer pH 4.8. The reactions were mixed briefly and incubated at 37° C. for 180 minutes, prior to quenching with 100 μL, of 1 M sodium carbonate. Hydrolysis was analyzed using a SpectraMax® M2 microplate reader monitoring fluorescence (Ex. 355 nm, Em. 448 nm).
# [3] = HTP-analysis of yeast culture supernatants, no challenge (MUGal hydrolysis); details: activity of the variant/activity of Rd2BB (SEQ ID NO: 10), yeast culture supernatant
# How it was run: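 GLA variants were expressed in INVSc1 yeast grown in SD-Ura broth with glucose at 30° C., and culture supernatants were collected after 66-84 h. Supernatant was mixed with McIlvaine buffer pH 4.8 and MUGal (2 mM stock) in 50 mM citrate, 200 mM KCl, pH 4.6, incubated at 37° C. for 30-180 minutes, then quenched with sodium carbonate.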
# [4] = HTP-analysis of supernatants pretreated with base (MUGal hydrolysis); details: challenge at pH 7.6; activity of the variant/activity of Rd2BB (SEQ ID NO: 10); yeast culture supernatant
# How it was run: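 Supernatants from INVSc1 yeast expressing GLA variants (SD-Ura, 66-84 h, 30° C) were mixed with McIlvaine buffer pH 7.0-8.2 or 200 mM sodium bicarbonate pH 9.1-9.7 and held 1-18 h at 37° C. Residual activity was then measured on MUGal at pH 4.8/4.3, 37° C, 30-180 min, by fluorescence (Ex 355/Em 448 nm).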
Molecule,Relative Activity of GLA Variants After Challenge at pH 4.2 [1],Relative Activity of GLA Variants After Challenge with Serum [2],Relative Activity of GLA Variants After No Challenge (NC) [3],Relative Activity of GLA Variants After Challenge at pH 7.6 [4]
"237 (protein, Synthetic Polypeptide sequence of Variant No. 237 of mature Human GLA) LDNGLARTPTMGWLHWERFMCNLDCQEEPDSCISEKLFMEMAELMVSEGWKDAGYEYLCIDDCWMAPQRDSEGRLQADPQRFPHGIRQLANYVHSKGLKLGIYADVGNKTCAGFPGSFGYYDIDAQTFADWGVDLLKFDGCYCDSLENLADGYKHMSLALNRTGRSIVYSCEWPLYMWPFQKPNYTEIRQYCNHWRNFADIDDSWASIKSILDWTSRNQERIVDVAGPGGWNDPDMLVIGNFGLSWNQQVTQMALWAIMAAPLFMSNDLRHISPQAKALLQDKDVIAINQDPLGKQGYQLRKGDNFEVWERPLSGDAWAVAMINRQEIGGPRSYTIPVASLGKGVACNPGCFITQLLPVKRKLGFYDWDSRLRSHINPTGTVLLQLENTMQMSLKDLL",+++ (+++ = >2.5 relative activity over Rd2BB (SEQ ID NO: 10)),+++ (+++ = >2.5 relative activity over Rd2BB (SEQ ID NO: 10)),+++ (+++ = >2.5 relative activity over Rd2BB (SEQ ID NO: 10)),+++ (+++ = >2.5 relative activity over Rd2BB (SEQ ID NO: 10))
"238 (protein, Synthetic Polypeptide sequence of Variant No. 238 of mature Human GLA) LDNGLARTPTMGWLHWERFMCNLDCQEEPDSCISEKLFMEMAELMVSEGWKDAGYEYLCIDDCWMAPQRDSEGRLQADPQRFPHGIRQLANYVHSKGLKLGIYADVGNKTCAGFPGSFGYYDIDAQTFADWGVDLLKFDGCYCDSLENLADGYKHMSLALNRTGRSIVYSCEWPLYMWPFQKPNYTEIRQYCNHWRNFADIDDSWASVKSILDWTSFNQERIVDVAGPGGWNDPDMLVIGNFGLSWNQQVTQMALWAIMAAPLFMSNDLRHISPQAKALLQDKDVIAINQDPLGKQGYQLRQGDNFEVWERPLSGLAWAVAVINRQEIGGPRSYTIAVASLGGGVACNPACFITQLLPVKRKLGLYEWTSRLKSHVNPTGTVLLQLENTMQMSLKDLL",+++ (+++ = >2.5 relative activity over Rd2BB (SEQ ID NO: 10)),++ (++ = 1.5 to 2.5 relative activity over Rd2BB (SEQ ID NO: 10)),++ (++ = 1.5 to 2.5 relative activity over Rd2BB (SEQ ID NO: 10)),+++ (+++ = >2.5 relative activity over Rd2BB (SEQ ID NO: 10))
"239 (protein, Synthetic Polypeptide sequence of Variant No. 239 of mature Human GLA) LDNGLARTPTMGWLHWERFMCNLDCQEEPDSCISEKLFMEMAELMVSEGWKDAGYEYLCIDDCWMAPQRDSEGRLQADPQRFPHGIRQLANYVHSKGLKLGIYADVGNKTCAGFPGSFGYYDIDAQTFADWGVDLLKFDGCYCDSLENLADGYKHMSLALNRTGRSIVYSCEWPLYMWPFQKPNYTEIRQYCNHWRNFADIDDSWASVKSILDWTSFNQEKIVDVAGPGGWNDPDMLVIGNFGLSWDQQVTQMALWAIMAAPLFMSNDLRHISPQAKALLQDKDVIAINQDPLGKQGYQLRQGDNFEVWERPLSGLAWAVAIINRQEIGGPRSYTIAVASLGDGVACNPACFITQLLPVKRKLGLYEWTSRLKSHVNPTGTVLLQLENTMQMSLKDLL",+++ (+++ = >2.5 relative activity over Rd2BB (SEQ ID NO: 10)),++ (++ = 1.5 to 2.5 relative activity over Rd2BB (SEQ ID NO: 10)),+++ (+++ = >2.5 relative activity over Rd2BB (SEQ ID NO: 10)),+++ (+++ = >2.5 relative activity over Rd2BB (SEQ ID NO: 10))
